Results taken from article doi:10.1101/2025.08.05.667158.

Columns and labels:
[1] = target: human IR-A ECD construct (residues 1-917) (human); assay: cryo-EM structure
[2] = target: IR-A in cell membranes of human IM-9 lymphocytes (human (endogenous in IM-9)) (UniProt P06213); assay: radioligand binding

stoichiometry N (per IR-ECD dimer) [1]: 2 | Kd [2]: 2.6 nM
Substance: S661 peptide
